Measured values published in patent US20040223970A1 (published 2004).

T1: SLC15A2 (Solute carrier family 15 (H+/peptide transporter), member 2) (human, UniProt Q16348 1-729)
T1 construct: Expressed from its cDNA on stably transfected 3T12 and Calu6 cells (FACS, saporin killing), and endogenous in human prostate sections (IHC); also called SLC15A2 protein; SLCA15A2
T1 sequence: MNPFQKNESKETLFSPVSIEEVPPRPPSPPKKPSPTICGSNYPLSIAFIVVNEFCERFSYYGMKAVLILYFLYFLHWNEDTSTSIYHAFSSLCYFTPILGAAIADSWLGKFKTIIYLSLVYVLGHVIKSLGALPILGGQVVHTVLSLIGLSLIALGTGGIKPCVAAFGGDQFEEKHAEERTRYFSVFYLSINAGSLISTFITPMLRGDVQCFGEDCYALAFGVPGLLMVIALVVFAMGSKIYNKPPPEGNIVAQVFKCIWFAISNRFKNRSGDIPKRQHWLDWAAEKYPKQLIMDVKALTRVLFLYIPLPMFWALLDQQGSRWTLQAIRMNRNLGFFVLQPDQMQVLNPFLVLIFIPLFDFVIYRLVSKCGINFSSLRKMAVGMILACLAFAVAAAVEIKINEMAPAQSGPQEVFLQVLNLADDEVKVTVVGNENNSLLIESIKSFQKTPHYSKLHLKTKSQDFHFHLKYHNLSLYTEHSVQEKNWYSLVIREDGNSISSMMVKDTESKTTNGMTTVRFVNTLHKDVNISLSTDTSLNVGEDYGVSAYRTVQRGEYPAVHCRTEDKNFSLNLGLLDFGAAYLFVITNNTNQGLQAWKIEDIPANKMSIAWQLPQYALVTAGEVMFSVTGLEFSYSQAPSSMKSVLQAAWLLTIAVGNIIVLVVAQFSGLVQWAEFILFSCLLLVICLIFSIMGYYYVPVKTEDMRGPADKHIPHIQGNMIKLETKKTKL


Biological target: T1, SLC15A2 (Solute carrier family 15 …)
Assay: FACS, hybridoma supernatant on SLC15A2 expressing cells

| Binder | binding result |
| --- | --- |
| PDO5 #810 monoclonal antibody (antibody, V domains shown, also called clone 810; Clone 810 supernatant) VH: EVQLQQSGPELVKPGASMKISCKASGYSFTGYTMNWVKQSHGKNLEWIGLINPYNGGINYNQKFKGKATLTVDKSSSTAYMELLSLTSEDSAVYYCTRRAYYGNYGTMDYWGQGTSVTVSS VL: ENVLTQSPASMSASPGEKVTMTCSASSSVSYMHWYQQKSTTSPKLWIYDTSNLASGVPGRFSGSGSGNSYSLTISNMEAEDVATYYCFQGSGYPLTFGAGTKLELKR | binds |
| PDO5 #811 monoclonal antibody (antibody, V domains shown, Mouse monoclonal antibody from a hybridoma, used as hybridoma supernatant; also called clone 811) VH: QVQLQQPGAELVRPGASVKLSCKASGYTFTSYWLNWVRQRPGQGLEWIGMIDPSDSETHYNQMFKDKATLTVDKSSSTAYMQLSSLTSEDSAVYYCTSQGVPVPFDYWGQGTTLTVSS VL: DVVMTQTPLSLPVSLGDQASISCRSSQSLVHSNGNTYLHWYLQKPGQSPKLLIYRVSNRFSGVPDRFSGSGSGTDFTLKISRVEAEDLGVYFCSQSTHVPWTFGGGTKLEIKR | binds |
